“And” between values parts separate entries of the source, which are not always exact repeats. Identical values can stand only once.
Columns and labels:
[1] = target: vascular endothelial growth factor (VEGF165) (human); assay: SDS-PAGE; VEGF solution before reduction (non-reducing)
[2] = target: vascular endothelial growth factor (VEGF165) (human); assay: solid-state nanopore translocation; 20 nM VEGF, pH 7.6, V = +500 mV, ~5.5 nm pore in 12 nm SiNx; 1 M KCl, 50 mM phosphate buffer, 5 mM EDTA, 22.0 ± 0.5 °C; then 0.5 mM TCEP added in the same pore (events converge into one lower-amplitude group, 92%)
[3] = target: vascular endothelial growth factor (VEGF165) (human); assay: solid-state nanopore translocation; 0.2 nM to 100 nM VEGF, pH 7.2, V = −500 mV, ~5–6.5 nm pore; 1 M KCl, 50 mM phosphate buffer, 5 mM EDTA, 22.0 ± 0.5 °C; 0.5 mM TCEP added afterwards shifts the events to single-level group A (71%)

For “vascular endothelial growth factor (VEGF165) (natural protein)”, the stoichiometry N [1] was 2 and 3, the stoichiometry N [2] was 2 and 3 and the percent of translocation events in group B (dimer) at 20 nM [3] was 12%. The percent of translocation events in level B and B/A (dimeric state) at 0.2 nM [3] was 6%, the percent of translocation events in level B and B/A (dimeric state) at 100 nM [3] was 59% and the percent of translocation events with a B to A multi-level pattern at 20 nM [3] was 28%. It also gave a stoichiometry N [3] of 2.

From publication PMC5772516
